Measurements: publication PMC3794440 (Biochemistry, 2013)
Read-outs that look alike come from different tables or passages of the source.

How the values were obtained:
[1] = target: I28A Pin1 (Homo sapiens, UniProt Q13526, I28A); assay: NMR titration; type: binding; conditions: read-out: equilibrium dissociation constant Kd (I28A), 295 K, 16.4 T, 30 mM imidazole-d4 pH 6.6, 5 mM DTT-d10, 30 mM NaCl, 0.03% NaN3, 90% H2O/10% D2O, uncertainties by jack-knife simulations
[2] = target: T1, wild-type Pin1 (Homo sapiens, UniProt Q13526); assay: NMR titration; type: binding; conditions: read-out: equilibrium dissociation constant Kd (WT), 295 K, 16.4 T, 30 mM imidazole-d4 pH 6.6, 5 mM DTT-d10, 30 mM NaCl, 0.03% NaN3, 90% H2O/10% D2O, uncertainties by jack-knife simulations
[3] = target: T1, wild-type Pin1; assay: chromogenic coupled isomerase assay of Kofron et al., WT; type: biochemical; conditions: chromogenic substrate suc-AEPF-pNA

Substance: EQPLpTPVTDL [Cdc25C phosphopeptide]
- Kd ([1]; residue G20, WW domain): 43.5 ± 3 µM
- Kd ([1]; residue R14, WW domain): 48.5 ± 4.9 µM
- Kd ([1]; residue R54, PPIase domain): 110 ± 10 µM
- Kd ([2]; residue A140, PPIase domain): 9.7 ± 2 µM
- Kd ([2]; residue G20, WW domain): 9.1 ± 0.4 µM
- Kd ([2]; residue R14, WW domain): 2.7 ± 0.7 µM
- Kd ([2]; residue R54, PPIase domain): 7.8 ± 0.4 µM

Substance: WT: full-length wild-type human Pin1 (WW domain and PPIase domain)
- specificity constant kcat/KM (WT) [3]: 4250 ± 213 mM^–1 s^–1
